According to paper doi:10.1101/2021.06.14.448427 (bioRxiv, 2021):
Blank lines part the entries; values can stand above or below the binder they belong to.

Key:
[1] = target: T1, NTF of c-CDCP1 Cut 1 ectodomain (ending after K365) (human, UniProt Q9H5V8 30-365); assay: SEC
T1 sequence (looked up): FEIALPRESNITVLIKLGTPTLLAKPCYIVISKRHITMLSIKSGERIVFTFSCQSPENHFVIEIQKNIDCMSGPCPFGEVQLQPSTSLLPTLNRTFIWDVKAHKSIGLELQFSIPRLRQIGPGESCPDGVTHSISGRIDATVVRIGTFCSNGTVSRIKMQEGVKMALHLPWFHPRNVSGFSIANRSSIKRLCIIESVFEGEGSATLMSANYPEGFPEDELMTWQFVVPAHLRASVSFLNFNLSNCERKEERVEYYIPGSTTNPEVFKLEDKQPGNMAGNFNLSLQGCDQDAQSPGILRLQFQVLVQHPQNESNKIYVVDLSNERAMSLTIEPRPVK

[2] = target: T2, NTF of c-CDCP1 Cut 3 ectodomain (ending after K369) (human, UniProt Q9H5V8 30-369); assay: co-purification after co-transfection
T2 sequence (looked up): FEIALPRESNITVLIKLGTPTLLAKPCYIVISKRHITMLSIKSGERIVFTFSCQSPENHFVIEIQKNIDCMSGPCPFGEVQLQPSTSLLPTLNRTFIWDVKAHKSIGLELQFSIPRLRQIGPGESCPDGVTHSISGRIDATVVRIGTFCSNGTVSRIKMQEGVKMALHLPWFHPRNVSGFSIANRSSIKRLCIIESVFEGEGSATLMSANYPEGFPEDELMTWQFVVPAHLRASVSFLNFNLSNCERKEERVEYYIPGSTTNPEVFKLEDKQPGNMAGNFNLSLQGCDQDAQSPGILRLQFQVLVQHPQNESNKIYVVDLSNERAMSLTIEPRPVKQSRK

[3] = target: T3, NTF of c-CDCP1 Cut 2 ectodomain (ending after R368) (human, UniProt Q9H5V8 30-368); assay: SEC
T3 sequence (looked up): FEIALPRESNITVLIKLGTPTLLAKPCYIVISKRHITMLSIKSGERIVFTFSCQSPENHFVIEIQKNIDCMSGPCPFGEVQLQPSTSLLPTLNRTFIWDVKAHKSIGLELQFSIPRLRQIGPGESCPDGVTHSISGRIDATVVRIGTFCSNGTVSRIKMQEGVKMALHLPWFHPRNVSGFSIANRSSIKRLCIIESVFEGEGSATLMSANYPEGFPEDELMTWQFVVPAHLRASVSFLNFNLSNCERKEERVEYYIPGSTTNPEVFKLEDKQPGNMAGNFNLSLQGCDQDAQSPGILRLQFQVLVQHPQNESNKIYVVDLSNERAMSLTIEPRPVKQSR

binding result [1]: binds
B1: CTF ectodomain of c-CDCP1 Cut 1 (starting after K365) (domain or fragment, human, UniProt Q9H5V8 366-665, looked up)
chain: QSRKFVPGCFVCLESRTCSSNLTLTSGSKHKISFLCDDLTRLWMNVEKTISCTDHRYCQRKSYSLQVPSDILHLPVELHDFSWKLLVPKDRLSLVLVPAQKLQQHTHEKPCNTSFSYLVASAIPSQDLYFGSFCPGGSIKQIQVKQNISVTLRTFAPSFQQEASRQGLTVSFIPYFKEEGVFTVTPDTKSKVYLRTPNWDRGLPSLTSVSWNISVPRDQVACLTFFKERSGVVCQTGRAFMIIQEQRTRAEEIFSLDEDVLPKPSFHHHSFWVNISNCSPTSGKQLDLLFSVTLTPRTVD

binding result [2]: binds
B2: CTF ectodomain of c-CDCP1 Cut 3 (starting after K369) (domain or fragment, human, UniProt Q9H5V8 370-665, looked up)
chain: FVPGCFVCLESRTCSSNLTLTSGSKHKISFLCDDLTRLWMNVEKTISCTDHRYCQRKSYSLQVPSDILHLPVELHDFSWKLLVPKDRLSLVLVPAQKLQQHTHEKPCNTSFSYLVASAIPSQDLYFGSFCPGGSIKQIQVKQNISVTLRTFAPSFQQEASRQGLTVSFIPYFKEEGVFTVTPDTKSKVYLRTPNWDRGLPSLTSVSWNISVPRDQVACLTFFKERSGVVCQTGRAFMIIQEQRTRAEEIFSLDEDVLPKPSFHHHSFWVNISNCSPTSGKQLDLLFSVTLTPRTVD

binding result [3]: binds
B3: CTF ectodomain of c-CDCP1 Cut 2 (starting after R368) (domain or fragment, human, UniProt Q9H5V8 369-665, looked up)
chain: KFVPGCFVCLESRTCSSNLTLTSGSKHKISFLCDDLTRLWMNVEKTISCTDHRYCQRKSYSLQVPSDILHLPVELHDFSWKLLVPKDRLSLVLVPAQKLQQHTHEKPCNTSFSYLVASAIPSQDLYFGSFCPGGSIKQIQVKQNISVTLRTFAPSFQQEASRQGLTVSFIPYFKEEGVFTVTPDTKSKVYLRTPNWDRGLPSLTSVSWNISVPRDQVACLTFFKERSGVVCQTGRAFMIIQEQRTRAEEIFSLDEDVLPKPSFHHHSFWVNISNCSPTSGKQLDLLFSVTLTPRTVD
